Assay results from article PMC12004702, “Characterization of a rhodopsin-phosphodiesterase from Choanoeca flexa to be combined with rhodopsin-cyclases for bidirectional optogenetic cGMP control” (The Journal of Biological Chemistry, 2025).

Substrate: [H][C@@]12COP(=O)(O)O[C@@]1([H])[C@@H](O)[C@H](n1cnc3c(=O)[nH]c(N)nc31)O2
Assay: HPLC initial-rate assay, Michaelis-Menten fit, membrane fraction
Assay type: biochemical, Choanoeca flexa
Conditions: 5 mM MgCl2, 20 mM Hepes, 100 mM NaCl, 5 mM DTT, 5% glycerol
[1] = light-adapted state (470 nm, 30 μW/mm^2)

B1: CfRhPDE1 (Choanoeca flexa) (protein)
chain: MSKAMTMREEAALELKRKGKVKNVAIATTSEVQKQGFFMMAVWIATVSILWLFSNPEASEAVFEKHGQLRVMYGATSVAFAFATALDVLAYVNAVSDEKRVLSGVLAYVDGAACLSYAAMASLPLYFILDSHNGNPIWLMRYAEWLITCPTLLYWCGLATRGERGAVADIATGDAMLLAGGALSSILPGWPSYFVFMGSVAAFVYVMTHMWGLFSKAMQPDFSPAPPLPRTALNLMRWEIVLSWTCFPMIEYSRRYFGLDYQTGEALNSIIDYAAKVGLAMIMVNCNLEQINAIKVEQMQSAMSGMVKVMRKTNARVELDGMDDDVKGWLLNEYAGDDGEDEVKVSSKSKRNQKSINPEEISASALFSWDFCSLDKSEEDLVGICIRVFRELKMIEVFDLDESKLRRFILGVRSRYNKNPFHNWKHAVMVLHTCYLFITQVAAEFCTDLEVLALLFAALCHDCDHNGVNNAFHINSRSDLALLYNDQSVLENHHCYSGFDVLYDKGNNFLDVLSEGDFKRFRSLVIDCILGTDMAHHASKLGKLEEINRLGGFSNLAENDEQRAFVMVTLLHTSDLYNPIKPFHITKKWANRLQREFNQQVEVESQMGLPSLPFMKGQGELALAKGEVGFITFVIRPWYVQLTNAFPKIDFLMDNIDTNLDMWKSIVESHE
notes: full-length, N-terminal Venus tag kept, no other change from WT; codon-optimized; membranes of ND7/23 cells; modelled as dimer
Q: For B1, which Km (darkness (dark-adapted state)) is on record?
A: 4.4 ± 0.6 µM

Q: What about the kcat (darkness (dark-adapted state)) of the same protein?
A: 2.0 ± 0.1 s⁻¹

Q: What about the Km [1] of the same protein?
A: 1.9 ± 0.1 µM

Q: What about the kcat [1] of the same protein?
A: 4.7 ± 0.1 s⁻¹
